In patent US20130005646A1 (Novo Nordisk, published 2013):
Values belong to the binder of their own block, whether it stands above or below them. Starred links: 1 amine or outer side, 2 acyl side, 3 side chain; linkers in the order of their positions; H or OH if unused. Positions of bridges follow the written chain, without caps; N, C: chain ends. *: point of attachment. C20 diacid = O=C(O)CCCCCCCCCCCCCCCCCCC(=O)*; C18 diacid = O=C(O)CCCCCCCCCCCCCCCCC(=O)*; γGlu = O=C(O)[C@H](CCC(=O)[*:2])N[*:1]

Experiments:
[1] = target: T1, human amylin 3(a) receptor (human calcitonin receptor + RAMP-3) (human, UniProt P30988 25-474; O60896 24-148); assay: cell-based or functional assay
T1 sequence (looked up) 1: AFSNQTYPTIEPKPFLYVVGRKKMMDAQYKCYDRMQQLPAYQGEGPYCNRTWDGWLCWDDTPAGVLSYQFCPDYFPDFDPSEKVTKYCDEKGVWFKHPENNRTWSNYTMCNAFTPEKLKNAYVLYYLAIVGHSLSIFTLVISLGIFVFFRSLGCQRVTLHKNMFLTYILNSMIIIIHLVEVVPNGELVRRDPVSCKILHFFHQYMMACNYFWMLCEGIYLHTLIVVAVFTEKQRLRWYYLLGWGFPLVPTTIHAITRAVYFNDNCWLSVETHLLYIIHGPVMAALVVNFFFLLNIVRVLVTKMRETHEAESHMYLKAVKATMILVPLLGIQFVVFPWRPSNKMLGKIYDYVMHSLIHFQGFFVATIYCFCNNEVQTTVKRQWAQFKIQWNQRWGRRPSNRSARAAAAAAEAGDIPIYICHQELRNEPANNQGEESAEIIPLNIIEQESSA
T1 sequence (looked up) 2: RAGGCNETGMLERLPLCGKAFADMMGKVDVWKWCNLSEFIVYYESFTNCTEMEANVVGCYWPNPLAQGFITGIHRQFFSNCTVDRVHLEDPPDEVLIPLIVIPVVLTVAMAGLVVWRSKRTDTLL

[2] = target: T2, human calcitonin (a) receptor (human, UniProt P30988 25-474); assay: cell-based or functional assay
T2 sequence (looked up): T1 sequence (looked up) 1

Amylin receptor human EC50 [1]: 0.0935 nM
CTa receptor human EC50 [2]: 0.43 nM
B1: N-alpha-[(S)-4-Carboxy-4-(19-carboxynonadecanoylamino)butyryl]-His-[Glu14,Arg17,His35]-pramlintide (peptide)
peptide: {C20 diacid-γGlu}-HKCNTATCATQRLAEFLRHSSNNFGPILPPTNVGSHTY-NH2
modifications: disulfide 3-8
SMILES: CC[C@H](C)[C@H](NC(=O)[C@@H]1CCCN1C(=O)CNC(=O)[C@H](Cc1ccccc1)NC(=O)[C@H](CC(N)=O)NC(=O)[C@H](CC(N)=O)NC(=O)[C@H](CO)NC(=O)[C@H](CO)NC(=O)[C@H](Cc1c[nH]cn1)NC(=O)[C@H](CCCNC(=N)N)NC(=O)[C@H](CC(C)C)NC(=O)[C@H](Cc1ccccc1)NC(=O)[C@H](CCC(=O)O)NC(=O)[C@H](C)NC(=O)[C@H](CC(C)C)NC(=O)[C@H](CCCNC(=N)N)NC(=O)[C@H](CCC(N)=O)NC(=O)[C@@H](NC(=O)[C@H](C)NC(=O)[C@@H]1CSSC[C@H](NC(=O)[C@H](CCCCN)NC(=O)[C@H](Cc2c[nH]cn2)NC(=O)CC[C@H](NC(=O)CCCCCCCCCCCCCCCCCCC(=O)O)C(=O)O)C(=O)N[C@@H](CC(N)=O)C(=O)N[C@@H]([C@@H](C)O)C(=O)N[C@@H](C)C(=O)N[C@@H]([C@@H](C)O)C(=O)N1)[C@@H](C)O)C(=O)N[C@@H](CC(C)C)C(=O)N1CCC[C@H]1C(=O)N1CCC[C@H]1C(=O)N[C@H](C(=O)N[C@@H](CC(N)=O)C(=O)N[C@H](C(=O)NCC(=O)N[C@@H](CO)C(=O)N[C@@H](Cc1c[nH]cn1)C(=O)N[C@H](C(=O)N[C@@H](Cc1ccc(O)cc1)C(N)=O)[C@@H](C)O)C(C)C)[C@@H](C)O

Amylin receptor human EC50 [1]: 0.153 nM
CTa receptor human EC50 [2]: 0.0945 nM
B2: N-alpha-[(S)-4-Carboxy-4-(19-carboxynonadecanoylamino)butyryl]-[Glu14,His17,Ala25,Pro26,Ser28,Ser29,His35]-pramlintide (peptide)
peptide: {C20 diacid-γGlu}-KCNTATCATQRLAEFLHHSSNNFGAPLSSTNVGSHTY-NH2
modifications: disulfide 2-7
SMILES: CC(C)C[C@H](NC(=O)[C@H](CCCNC(=N)N)NC(=O)[C@H](CCC(N)=O)NC(=O)[C@@H](NC(=O)[C@H](C)NC(=O)[C@@H]1CSSC[C@H](NC(=O)[C@H](CCCCN)NC(=O)CC[C@H](NC(=O)CCCCCCCCCCCCCCCCCCC(=O)O)C(=O)O)C(=O)N[C@@H](CC(N)=O)C(=O)N[C@@H]([C@@H](C)O)C(=O)N[C@@H](C)C(=O)N[C@@H]([C@@H](C)O)C(=O)N1)[C@@H](C)O)C(=O)N[C@@H](C)C(=O)N[C@@H](CCC(=O)O)C(=O)N[C@@H](Cc1ccccc1)C(=O)N[C@@H](CC(C)C)C(=O)N[C@@H](Cc1c[nH]cn1)C(=O)N[C@@H](Cc1c[nH]cn1)C(=O)N[C@@H](CO)C(=O)N[C@@H](CO)C(=O)N[C@@H](CC(N)=O)C(=O)N[C@@H](CC(N)=O)C(=O)N[C@@H](Cc1ccccc1)C(=O)NCC(=O)N[C@@H](C)C(=O)N1CCC[C@H]1C(=O)N[C@@H](CC(C)C)C(=O)N[C@@H](CO)C(=O)N[C@@H](CO)C(=O)N[C@H](C(=O)N[C@@H](CC(N)=O)C(=O)N[C@H](C(=O)NCC(=O)N[C@@H](CO)C(=O)N[C@@H](Cc1c[nH]cn1)C(=O)N[C@H](C(=O)N[C@@H](Cc1ccc(O)cc1)C(N)=O)[C@@H](C)O)C(C)C)[C@@H](C)O

Amylin receptor human EC50 [1]: 0.558 nM
CTa receptor human EC50 [2]: 0.632 nM
B3: N-alpha-[(S)-4-Carboxy-4-(19-carboxynonadecanoylamino)butyryl]-His-His-[His1,Glu14,His17,Ser21,Glu35]-pramlintide (peptide)
peptide: {C20 diacid-γGlu}-HHHCNTATCATQRLAEFLHHSSSNFGPILPPTNVGSETY-NH2
modifications: disulfide 4-9
SMILES: CC[C@H](C)[C@H](NC(=O)[C@@H]1CCCN1C(=O)CNC(=O)[C@H](Cc1ccccc1)NC(=O)[C@H](CC(N)=O)NC(=O)[C@H](CO)NC(=O)[C@H](CO)NC(=O)[C@H](CO)NC(=O)[C@H](Cc1c[nH]cn1)NC(=O)[C@H](Cc1c[nH]cn1)NC(=O)[C@H](CC(C)C)NC(=O)[C@H](Cc1ccccc1)NC(=O)[C@H](CCC(=O)O)NC(=O)[C@H](C)NC(=O)[C@H](CC(C)C)NC(=O)[C@H](CCCNC(=N)N)NC(=O)[C@H](CCC(N)=O)NC(=O)[C@@H](NC(=O)[C@H](C)NC(=O)[C@@H]1CSSC[C@H](NC(=O)[C@H](Cc2c[nH]cn2)NC(=O)[C@H](Cc2c[nH]cn2)NC(=O)[C@H](Cc2c[nH]cn2)NC(=O)CC[C@H](NC(=O)CCCCCCCCCCCCCCCCCCC(=O)O)C(=O)O)C(=O)N[C@@H](CC(N)=O)C(=O)N[C@@H]([C@@H](C)O)C(=O)N[C@@H](C)C(=O)N[C@@H]([C@@H](C)O)C(=O)N1)[C@@H](C)O)C(=O)N[C@@H](CC(C)C)C(=O)N1CCC[C@H]1C(=O)N1CCC[C@H]1C(=O)N[C@H](C(=O)N[C@@H](CC(N)=O)C(=O)N[C@H](C(=O)NCC(=O)N[C@@H](CO)C(=O)N[C@@H](CCC(=O)O)C(=O)N[C@H](C(=O)N[C@@H](Cc1ccc(O)cc1)C(N)=O)[C@@H](C)O)C(C)C)[C@@H](C)O

Amylin receptor human EC50 [1]: 0.101 nM
CTa receptor human EC50 [2]: 0.615 nM
B4: N-alpha-[(S)-4-Carboxy-4-(19-carboxynonadecanoylamino)butyryl]-His-His-[Glu14,Arg17,His35]-pramlintide (peptide)
peptide: {C20 diacid-γGlu}-HHKCNTATCATQRLAEFLRHSSNNFGPILPPTNVGSHTY-NH2
modifications: disulfide 4-9
SMILES: CC[C@H](C)[C@H](NC(=O)[C@@H]1CCCN1C(=O)CNC(=O)[C@H](Cc1ccccc1)NC(=O)[C@H](CC(N)=O)NC(=O)[C@H](CC(N)=O)NC(=O)[C@H](CO)NC(=O)[C@H](CO)NC(=O)[C@H](Cc1c[nH]cn1)NC(=O)[C@H](CCCNC(=N)N)NC(=O)[C@H](CC(C)C)NC(=O)[C@H](Cc1ccccc1)NC(=O)[C@H](CCC(=O)O)NC(=O)[C@H](C)NC(=O)[C@H](CC(C)C)NC(=O)[C@H](CCCNC(=N)N)NC(=O)[C@H](CCC(N)=O)NC(=O)[C@@H](NC(=O)[C@H](C)NC(=O)[C@@H]1CSSC[C@H](NC(=O)[C@H](CCCCN)NC(=O)[C@H](Cc2c[nH]cn2)NC(=O)[C@H](Cc2c[nH]cn2)NC(=O)CC[C@H](NC(=O)CCCCCCCCCCCCCCCCCCC(=O)O)C(=O)O)C(=O)N[C@@H](CC(N)=O)C(=O)N[C@@H]([C@@H](C)O)C(=O)N[C@@H](C)C(=O)N[C@@H]([C@@H](C)O)C(=O)N1)[C@@H](C)O)C(=O)N[C@@H](CC(C)C)C(=O)N1CCC[C@H]1C(=O)N1CCC[C@H]1C(=O)N[C@H](C(=O)N[C@@H](CC(N)=O)C(=O)N[C@H](C(=O)NCC(=O)N[C@@H](CO)C(=O)N[C@@H](Cc1c[nH]cn1)C(=O)N[C@H](C(=O)N[C@@H](Cc1ccc(O)cc1)C(N)=O)[C@@H](C)O)C(C)C)[C@@H](C)O

Amylin receptor human EC50 [1]: 0.102 nM
CTa receptor human EC50 [2]: 0.169 nM
B5: N-alpha-[(S)-4-Carboxy-4-(17-carboxyheptadecanoylamino)butyryl]-Glu-[Glu14,His17,His35]-pramlintide (peptide)
peptide: {C18 diacid-γGlu}-EKCNTATCATQRLAEFLHHSSNNFGPILPPTNVGSHTY-NH2
modifications: disulfide 3-8
SMILES: CC[C@H](C)[C@H](NC(=O)[C@@H]1CCCN1C(=O)CNC(=O)[C@H](Cc1ccccc1)NC(=O)[C@H](CC(N)=O)NC(=O)[C@H](CC(N)=O)NC(=O)[C@H](CO)NC(=O)[C@H](CO)NC(=O)[C@H](Cc1c[nH]cn1)NC(=O)[C@H](Cc1c[nH]cn1)NC(=O)[C@H](CC(C)C)NC(=O)[C@H](Cc1ccccc1)NC(=O)[C@H](CCC(=O)O)NC(=O)[C@H](C)NC(=O)[C@H](CC(C)C)NC(=O)[C@H](CCCNC(=N)N)NC(=O)[C@H](CCC(N)=O)NC(=O)[C@@H](NC(=O)[C@H](C)NC(=O)[C@@H]1CSSC[C@H](NC(=O)[C@H](CCCCN)NC(=O)[C@H](CCC(=O)O)NC(=O)CC[C@H](NC(=O)CCCCCCCCCCCCCCCCC(=O)O)C(=O)O)C(=O)N[C@@H](CC(N)=O)C(=O)N[C@@H]([C@@H](C)O)C(=O)N[C@@H](C)C(=O)N[C@@H]([C@@H](C)O)C(=O)N1)[C@@H](C)O)C(=O)N[C@@H](CC(C)C)C(=O)N1CCC[C@H]1C(=O)N1CCC[C@H]1C(=O)N[C@H](C(=O)N[C@@H](CC(N)=O)C(=O)N[C@H](C(=O)NCC(=O)N[C@@H](CO)C(=O)N[C@@H](Cc1c[nH]cn1)C(=O)N[C@H](C(=O)N[C@@H](Cc1ccc(O)cc1)C(N)=O)[C@@H](C)O)C(C)C)[C@@H](C)O

Amylin receptor human EC50 [1]: 0.0965 nM
CTa receptor human EC50 [2]: 0.115 nM
B6: N-alpha-[(S)-4-Carboxy-4-(19-carboxynonadecanoylamino)butyryl]-His-His-[Glu14,His17,His35]-pramlintide (peptide)
peptide: {C20 diacid-γGlu}-HHKCNTATCATQRLAEFLHHSSNNFGPILPPTNVGSHTY-NH2
modifications: disulfide 4-9
SMILES: CC[C@H](C)[C@H](NC(=O)[C@@H]1CCCN1C(=O)CNC(=O)[C@H](Cc1ccccc1)NC(=O)[C@H](CC(N)=O)NC(=O)[C@H](CC(N)=O)NC(=O)[C@H](CO)NC(=O)[C@H](CO)NC(=O)[C@H](Cc1c[nH]cn1)NC(=O)[C@H](Cc1c[nH]cn1)NC(=O)[C@H](CC(C)C)NC(=O)[C@H](Cc1ccccc1)NC(=O)[C@H](CCC(=O)O)NC(=O)[C@H](C)NC(=O)[C@H](CC(C)C)NC(=O)[C@H](CCCNC(=N)N)NC(=O)[C@H](CCC(N)=O)NC(=O)[C@@H](NC(=O)[C@H](C)NC(=O)[C@@H]1CSSC[C@H](NC(=O)[C@H](CCCCN)NC(=O)[C@H](Cc2c[nH]cn2)NC(=O)[C@H](Cc2c[nH]cn2)NC(=O)CC[C@H](NC(=O)CCCCCCCCCCCCCCCCCCC(=O)O)C(=O)O)C(=O)N[C@@H](CC(N)=O)C(=O)N[C@@H]([C@@H](C)O)C(=O)N[C@@H](C)C(=O)N[C@@H]([C@@H](C)O)C(=O)N1)[C@@H](C)O)C(=O)N[C@@H](CC(C)C)C(=O)N1CCC[C@H]1C(=O)N1CCC[C@H]1C(=O)N[C@H](C(=O)N[C@@H](CC(N)=O)C(=O)N[C@H](C(=O)NCC(=O)N[C@@H](CO)C(=O)N[C@@H](Cc1c[nH]cn1)C(=O)N[C@H](C(=O)N[C@@H](Cc1ccc(O)cc1)C(N)=O)[C@@H](C)O)C(C)C)[C@@H](C)O
